Measurements as given in patent US20260028402A1 (published 2026).
Like-named read-outs stand apart in the source and are kept apart here.

What was measured:
[1] = molecular target: T1, full-length mouse CD100 protein MusCD100 on cells (mouse, UniProt O09126 24-861); assay: FACS
T1 chain: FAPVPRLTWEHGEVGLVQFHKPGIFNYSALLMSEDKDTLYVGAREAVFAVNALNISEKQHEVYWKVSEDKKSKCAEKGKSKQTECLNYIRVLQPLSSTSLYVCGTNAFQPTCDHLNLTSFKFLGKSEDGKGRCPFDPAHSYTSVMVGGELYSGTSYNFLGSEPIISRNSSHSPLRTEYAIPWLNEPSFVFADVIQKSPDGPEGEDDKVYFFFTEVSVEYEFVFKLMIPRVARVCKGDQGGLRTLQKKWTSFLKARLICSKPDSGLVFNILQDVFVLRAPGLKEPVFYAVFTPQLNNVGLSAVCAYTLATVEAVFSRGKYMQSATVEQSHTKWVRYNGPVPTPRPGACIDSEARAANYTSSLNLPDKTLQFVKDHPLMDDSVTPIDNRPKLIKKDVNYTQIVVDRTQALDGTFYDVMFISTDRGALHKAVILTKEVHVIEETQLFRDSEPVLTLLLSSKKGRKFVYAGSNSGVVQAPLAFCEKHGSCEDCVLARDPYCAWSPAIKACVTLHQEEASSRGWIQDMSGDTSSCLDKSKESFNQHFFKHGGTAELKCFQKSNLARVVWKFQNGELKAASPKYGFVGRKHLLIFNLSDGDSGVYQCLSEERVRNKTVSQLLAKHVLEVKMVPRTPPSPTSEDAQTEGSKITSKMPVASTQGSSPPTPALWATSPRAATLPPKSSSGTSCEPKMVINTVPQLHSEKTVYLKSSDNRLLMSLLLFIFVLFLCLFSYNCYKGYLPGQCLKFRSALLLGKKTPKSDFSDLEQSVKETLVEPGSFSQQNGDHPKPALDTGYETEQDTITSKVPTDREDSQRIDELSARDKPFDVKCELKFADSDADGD

CynoCD100-His [2] = molecular target: CynoCD100-His (cynomolgus monkey); assay: ELISA; FIG. 5C
[3] = molecular target: T2, full-length human CD100 protein HuCD100 on cells (human, UniProt Q92854 22-862); assay: FACS
[4] = molecular target: T2, full-length human CD100 protein HuCD100 …; assay: FACS; remark: listed apart in the source
CynoCD100-HEK293 [5] = molecular target: CynoCD100-HEK293 (cynomolgus monkey); assay: FACS
CynoCD100-His [6] = molecular target: CynoCD100-His (cynomolgus monkey); assay: ELISA; FIG. 5F
[7] = molecular target: T3, HuCD100-Fc (in-house prepared) (human, UniProt Q92854 22-734, biotinylated in the Plexin binding and blocking assays (sites not given)); assay: FACS blocking; HuPlexin-B2-HEK293, FIG. 12D
MusCD100-Fc [8] = molecular target: T4, MusCD100-Fc (mouse, UniProt O09126 24-733, biotinylated in the Plexin binding and blocking assays (sites not given)); assay: FACS blocking; MusPlexin-B1-HEK293, FIG. 12F
T4 chain: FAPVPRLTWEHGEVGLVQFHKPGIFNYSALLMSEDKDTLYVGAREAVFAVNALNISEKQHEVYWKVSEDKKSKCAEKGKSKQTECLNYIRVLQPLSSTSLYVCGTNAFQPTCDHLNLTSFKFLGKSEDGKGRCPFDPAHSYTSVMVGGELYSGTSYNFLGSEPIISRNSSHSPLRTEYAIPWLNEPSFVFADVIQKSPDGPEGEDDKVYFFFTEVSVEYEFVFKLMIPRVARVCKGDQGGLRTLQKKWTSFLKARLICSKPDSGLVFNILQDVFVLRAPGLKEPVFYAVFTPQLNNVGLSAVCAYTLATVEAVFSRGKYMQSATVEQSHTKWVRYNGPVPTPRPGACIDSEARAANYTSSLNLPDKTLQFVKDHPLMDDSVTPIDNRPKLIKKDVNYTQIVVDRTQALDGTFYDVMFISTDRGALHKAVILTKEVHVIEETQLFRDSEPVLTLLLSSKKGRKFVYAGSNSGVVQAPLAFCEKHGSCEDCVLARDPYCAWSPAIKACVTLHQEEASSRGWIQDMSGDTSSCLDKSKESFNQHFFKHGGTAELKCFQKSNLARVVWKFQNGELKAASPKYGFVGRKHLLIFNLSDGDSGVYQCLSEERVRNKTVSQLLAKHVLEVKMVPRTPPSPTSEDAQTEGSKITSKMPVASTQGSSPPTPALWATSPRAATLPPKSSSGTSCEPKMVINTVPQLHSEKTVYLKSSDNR

MusCD100-Fc [9] = molecular target: T4, MusCD100-Fc; assay: FACS blocking; MusPlexin-B1-HEK293, FIG. 12E
[10] = molecular target: T3, HuCD100-Fc (in-house prepared); assay: FACS blocking; FIG. 8B, blocking of binding to HuPlexin-B2-HEK293
[11] = molecular target: T3, HuCD100-Fc (in-house prepared); assay: FACS blocking; HuPlexin-B2-HEK293, FIG. 12C
CynoCD100-HEK293 [12] = molecular target: CynoCD100-HEK293 (cynomolgus monkey); assay: FACS; remark: listed apart in the source
CynoCD100-HEK293 [13] = molecular target: CynoCD100-HEK293 (cynomolgus monkey); assay: FACS; remark: listed apart in the source
MusCD100-His = molecular target: T5, MusCD100-His (mouse, UniProt O09126 24-733); assay: ELISA; FIG. 5B
T5 chain: T4 chain

EC50 [1]: 0.276 nM
EC50 (CynoCD100-His [2]): 0.117 nM
EC50 [3]: 0.138 nM
EC50 [4]: 0.608 nM
EC50 (CynoCD100-HEK293 [5]): 0.365 nM
EC50 (CynoCD100-His [6]): 0.0993 nM
IC50 [7]: 2.06 nM
IC50 (MusCD100-Fc [8]): 5.44 nM
IC50 (MusCD100-Fc [9]): 4.08 nM
IC50 [10]: 0.766 nM
IC50 [11]: 1.45 nM
EC50 (CynoCD100-HEK293 [12]): 0.271 nM
EC50 (CynoCD100-HEK293 [13]): 0.132 nM
EC50 (MusCD100-His): 0.205 nM
B1: Pepinemab (antibody, V domains shown)
VH: QVQLVQSGAEVKKPGSSVKVSCKASGYSFSDYYMHWVRQAPGQGLEWMGQINPTTGGASYNQKFKGKATITVDKSTSTAYMELSSLRSEDTAVYYCARYYYGRHFDVWGQGTTVTVSS
VL: DIVMTQSPDSLAVSLGERATINCKASQSVDYDGDSYMNWYQQKPGQPPKLLIYAASNLESGVPDRFSGSGSGTDFTLTISSLQAEDVAVYYCQQSNEDPYTFGQGTKLEIK
